B1: SLC2A12 (parent)
chain: LTLVFFVQITGQPNILFYASTVLK
B2: CAMK2B (parent)
chain: YQQIKAGAYDFPSPEWDTVTPEAK

Variants of: B1
Test: protein stability index of a GFP-peptide fusion (GPS, HEK-293T) (PSI 1-6); higher = more stable
Conditions: c terminus: a fixed tail appended
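Note: lentivirally expressed fusions sorted by FACS into six bins by GFP to DsRed ratio, PSI derived from sequencing read proportions per bin multiplied by bin number.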

Protein stability index, by site and new letter:
I15: Q 2.46; Y 3.83; W 2.63; C 2.48; K 2.67; E 2.91; S 4.88; A 2.99; F 3.04; L 4.71
G11: M 3.38; V 2.45; N 3.96; L 2.33; A 2.87; C 2.58; Y 3.04; P 3.28; F 2.92; Q 4.06; T 2.29; D 3.42; S 2.87
T21: S 3.13; C 3.33; I 3.71; P 3.23; E 2.46; Q 2.97; M 3.09; N 3.31; W 3.97; L 2.38; F 3.22; D 3.9
L23: T 3.09; V 2.58; N 2.74; Q 3.05; W 1.83; E 2.83; R 3.18; Y 3.92; S 3.26; H 2.38; M 3.81
S20: C 2.27; E 3.34; G 3.23; T 4.03; F 4.03; N 2.84; Y 3.22; I 4.31; W 4.76; M 2.78; P 2.92; A 2.52; Q 2.48; K 3.97
Q12: E 2.25; K 3.74; N 1.94; T 3.22; Y 2.33; M 3.94; V 2.91; C 2.83; R 2.64; I 2.73; S 2.21; D 2.94; L 3.8
Y18: M 2.05; L 3.04; N 1.59; I 2.47; S 3.38; A 2.49; P 4.25; F 3.63; T 2.31; E 2.04; D 2.93; K 2.6
Q8: A 4.06; S 2.51; P 2.51; L 2.46; E 3.4; T 3.53; K 3.48; C 3.19; I 3.94; G 2.93; N 3.92; F 3.87; H 3.26
I9: G 2.45; E 4.04; S 3.01; R 3.42; Q 1.99; T 3.18; W 3.12; H 4.79; L 5.05; A 2.57; M 3.4; N 3.06; F 2.63
P13: H 3.43; I 2.72; Y 2.2; E 3.73; Q 2.05; A 3.85; T 2.59; R 3.44; G 5.6; S 3.1; K 2.67; V 3.35
A19: T 2.42; R 2.55; K 2.5; V 2.66; L 3.37; M 2.4
T2: P 2.78; M 3.56; Y 3.04; A 2.61; E 1.69; W 2.96; S 3.26; K 3.54; G 2.15; L 3.88; N 3.71; I 4.67; D 2.45; F 2.44; C 2.24
L16: C 2.98; P 4.12; R 3.61; T 3.51; A 4.05; G 2.02; H 1.6; M 3.19; D 2.58
K24: N 4.33; I 2.92; D 2.73; H 2.21; P 1.8; L 1.12; T 2.2; S 3.98; A 2.9; V 3.5; Q 4.06; Y 4.23; W 2.76; F 3.17; E 3.5
F5: S 1.66; T 1.96; I 2.45; V 2.47; Y 2.52; W 3.59; E 2.7; Q 2.13; R 3.67; N 2.65; H 1.93; P 3.32
F6: T 2.35; Q 4.18; D 2.69; W 2.85; G 3.11; V 3.64; A 2.9; L 2.26; H 3.02
F17: H 3.19; N 2.66; Y 2.63; M 2.52; S 2.69; W 3; Q 3.16; A 1.86; T 3.28; K 3.38
V4: N 2.73; K 2.64; D 3.68; E 1.44; Y 2.54; M 2.09; L 2.65; G 4; C 3.38; H 3.15; Q 3.56; I 2.99; W 2.98; P 2.67; S 2.54
V22: Y 3.57; Q 4.34; S 1.93; R 3.38; N 2.78; L 2.28; F 2.78; D 3.37; P 3.9; C 2.2; I 3.81; A 4.16
T10: I 3.61; F 2.92; K 3.77; E 2.11; S 1.67; Y 3.46; H 2.17; N 1.88; P 5.16; D 2.75; Q 1.31; A 3.42
V7: H 3.64; S 2.3; Y 3.38; W 2.61; M 4.19; D 3.27; A 2.03; K 1.59
N14: M 2.01; D 3.93; G 3.5; L 3.78; R 3.96; S 2.14; E 1.76; T 3.06; C 1.99; Y 1.5; I 4.38; Q 3.83; F 3.6; A 2.73; H 2.96; P 2.34
L3: E 4.85; R 2.29; N 2.42; W 4.1; G 2.17; V 4.79; P 3.17; S 3.34; H 2.75; Q 3.25; I 3.43; D 2.9; A 3.64; Y 2.54; M 3.15; T 4.46
L1: T 3.79; E 2.27; K 2.96; F 4.63; I 2.33; R 1.8; P 2.54; M 3.03; N 1.69; W 2.65; V 2.75; H 2.7; G 4.08; S 3.18; Y 2.85

Variants of: B2
Test: as above
Conditions: c terminus: a fixed tail appended

Protein stability index: each site, then its substitutions
Q2: K 3.8; V 1.8; C 2.87; M 3.95; W 3.06; I 2.28; T 3.67; A 3.12; N 4.51; D 4.78; F 3.46; Y 3.6; P 3.67; H 2.88; E 4.64; L 3.35; R 4.06; S 4.34; G 3.7
Q3: D 3.94; A 2.11; C 2.17
Y1: V 4.69; E 5.13; G 5.11; I 3.89; N 5.21; C 4.45; W 4.15; Q 4.92; A 4.94; M 5.04; T 4.88; H 4.58; P 4.94; L 4.75; R 4.83; S 4.94; D 5.38; F 3.33; K 4.88
